One block for each binder: values may come before it.
Columns and labels:
Experiment in all cases: holdup assay
Parameters in all cases: key: below the threshold = too weak to quantify, mostly under pKd 3.1 to 4
[1] = biological target: T1, SNTA1, Q13424
T1 sequence (Q13424 82-180, limits assumed, looked up): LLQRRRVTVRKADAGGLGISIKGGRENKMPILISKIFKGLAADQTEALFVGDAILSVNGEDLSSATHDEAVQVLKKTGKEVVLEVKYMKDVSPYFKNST

[2] = biological target: T2, APBA1_2, Q02410; conditions: plain residues with an end cap or a label only (N-terminal biotin on a linker: ttds)
T2 sequence (Q02410 742-832, limits assumed, looked up): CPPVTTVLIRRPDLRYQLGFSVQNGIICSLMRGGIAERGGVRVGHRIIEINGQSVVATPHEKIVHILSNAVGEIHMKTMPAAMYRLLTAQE

[3] = biological target: T3, PDZD2_2, O15018; conditions: plain residues with an end cap or a label only (N-terminal biotin on a linker: ttds)
T3 sequence (O15018 329-429, limits assumed, looked up): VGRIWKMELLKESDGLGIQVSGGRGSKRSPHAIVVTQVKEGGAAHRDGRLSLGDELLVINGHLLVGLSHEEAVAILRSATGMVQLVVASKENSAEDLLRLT

[4] = biological target: T4, SYNJ2BP, P57105; conditions: plain residues with an end cap or a label only (N-terminal biotin on a linker: ttds)
T4 sequence (P57105 8-110, limits assumed, looked up): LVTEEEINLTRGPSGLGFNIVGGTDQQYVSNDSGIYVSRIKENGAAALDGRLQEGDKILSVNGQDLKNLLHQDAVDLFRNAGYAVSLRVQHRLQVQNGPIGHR

[5] = biological target: GRID2IP_2, A4D2P6; conditions: plain residues with an end cap or a label only (N-terminal biotin on a linker: ttds)
Sequence of GRID2IP_2, A4D2P6 (A4D2P6 272-370): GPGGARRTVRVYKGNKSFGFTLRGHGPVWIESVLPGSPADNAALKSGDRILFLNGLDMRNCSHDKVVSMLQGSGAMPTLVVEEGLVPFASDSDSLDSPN

[6] = biological target: FRMPD3, Q5JV73; conditions: plain residues with an end cap or a label only (N-terminal biotin on a linker: ttds)
Sequence of FRMPD3, Q5JV73 (Q5JV73 12-100): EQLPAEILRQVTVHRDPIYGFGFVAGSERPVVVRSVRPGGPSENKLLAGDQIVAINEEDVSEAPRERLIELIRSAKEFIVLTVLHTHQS

[7] = biological target: T5, ARHGEF11, O15085
T5 sequence (O15085 42-136, limits assumed, looked up): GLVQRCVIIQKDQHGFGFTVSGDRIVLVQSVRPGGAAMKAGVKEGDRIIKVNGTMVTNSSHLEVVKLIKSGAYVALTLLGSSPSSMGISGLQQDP

[8] = biological target: T6, LRRC7, Q96NW7; conditions: plain residues with an end cap or a label only (N-terminal biotin on a linker: ttds)
T6 sequence (Q96NW7 1440-1537, limits assumed, looked up): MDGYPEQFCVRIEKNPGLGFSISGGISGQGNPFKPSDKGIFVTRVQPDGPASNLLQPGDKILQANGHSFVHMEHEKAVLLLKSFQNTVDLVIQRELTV

[9] = biological target: T7, PARD3B_1, Q8TEW8; conditions: plain residues with an end cap or a label only (N-terminal biotin on a linker: ttds)
T7 sequence (Q8TEW8 196-299, limits assumed, looked up): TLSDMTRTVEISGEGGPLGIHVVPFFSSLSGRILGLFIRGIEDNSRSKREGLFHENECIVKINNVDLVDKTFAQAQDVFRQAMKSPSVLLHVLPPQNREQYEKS

[10] = biological target: GIPC2, Q8TF65; conditions: plain residues with an end cap or a label only (N-terminal biotin on a linker: ttds)
Sequence of GIPC2, Q8TF65 (Q8TF65 112-203): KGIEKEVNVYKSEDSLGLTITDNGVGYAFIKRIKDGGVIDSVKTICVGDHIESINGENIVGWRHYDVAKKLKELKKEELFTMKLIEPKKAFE

[11] = biological target: T8, ARHGAP21, Q5T5U3; conditions: plain residues with an end cap or a label only (N-terminal biotin on a linker: ttds)
T8 sequence (Q5T5U3 45-169, limits assumed, looked up): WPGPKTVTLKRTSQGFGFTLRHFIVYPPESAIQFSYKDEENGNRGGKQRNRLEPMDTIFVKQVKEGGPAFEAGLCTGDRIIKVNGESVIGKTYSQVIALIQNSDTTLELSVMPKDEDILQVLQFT

[12] = biological target: Inadl_1, Q8NI35; conditions: plain residues with an end cap or a label only (N-terminal biotin on a linker: ttds)
Sequence of Inadl_1, Q8NI35 (Q8NI35 113-229): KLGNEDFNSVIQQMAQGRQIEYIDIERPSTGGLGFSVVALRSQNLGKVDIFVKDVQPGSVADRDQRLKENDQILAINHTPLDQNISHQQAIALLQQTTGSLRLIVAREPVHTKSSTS

[13] = biological target: PDZRN4_1, Q6ZMN7; conditions: plain residues with an end cap or a label only (N-terminal biotin on a linker: ado-ado)
Sequence of PDZRN4_1, Q6ZMN7 (Q6ZMN7 213-318): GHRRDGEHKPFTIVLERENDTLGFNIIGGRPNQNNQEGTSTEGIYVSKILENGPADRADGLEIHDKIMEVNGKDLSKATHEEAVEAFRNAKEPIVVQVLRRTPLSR

[14] = biological target: T9, DLG3_1, Q92796; conditions: plain residues with an end cap or a label only (N-terminal biotin on a linker: ado-ado)
T9 sequence (Q92796 125-227, limits assumed, looked up): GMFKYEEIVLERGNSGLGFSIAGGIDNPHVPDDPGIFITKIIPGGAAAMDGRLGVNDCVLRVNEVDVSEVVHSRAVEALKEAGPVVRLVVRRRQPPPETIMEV

[15] = biological target: FRMPD2_1, Q68DX3; conditions: plain residues with an end cap or a label only (N-terminal biotin on a linker: ado-ado)
Sequence of FRMPD2_1, Q68DX3 (Q68DX3 770-861): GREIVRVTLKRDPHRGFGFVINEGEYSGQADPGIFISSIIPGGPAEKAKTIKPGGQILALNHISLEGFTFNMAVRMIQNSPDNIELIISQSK

[16] = biological target: Inadl_4, Q8NI35; conditions: plain residues with an end cap or a label only (N-terminal biotin on a linker: ado-ado)
Sequence of Inadl_4, Q8NI35 (Q8NI35 547-651): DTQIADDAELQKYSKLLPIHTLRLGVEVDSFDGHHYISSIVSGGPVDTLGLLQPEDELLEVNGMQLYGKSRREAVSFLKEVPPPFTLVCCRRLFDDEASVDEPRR

[17] = biological target: GRIP2_6, Q9C0E4; conditions: plain residues with an end cap or a label only (N-terminal biotin on a linker: ado-ado)
Sequence of GRIP2_6, Q9C0E4 (Q9C0E4 648-740): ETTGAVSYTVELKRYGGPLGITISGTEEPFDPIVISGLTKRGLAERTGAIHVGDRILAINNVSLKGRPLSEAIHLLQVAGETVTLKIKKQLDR

[18] = biological target: T10, TIAM2, Q8IVF5; conditions: plain residues with an end cap or a label only (N-terminal biotin on a linker: ado-ado)
T10 sequence (Q8IVF5 885-986, limits assumed, looked up): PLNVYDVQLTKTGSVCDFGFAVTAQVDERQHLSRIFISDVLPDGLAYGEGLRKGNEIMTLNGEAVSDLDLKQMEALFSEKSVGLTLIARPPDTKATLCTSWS

[19] = biological target: SNX27, Q96L92; conditions: plain residues with an end cap or a label only (N-terminal biotin on a linker: ado-ado)
[20] = biological target: Inadl_8, Q8NI35; conditions: plain residues with an end cap or a label only (N-terminal biotin on a linker: ado-ado)
Sequence of Inadl_8, Q8NI35 (Q8NI35 1425-1530): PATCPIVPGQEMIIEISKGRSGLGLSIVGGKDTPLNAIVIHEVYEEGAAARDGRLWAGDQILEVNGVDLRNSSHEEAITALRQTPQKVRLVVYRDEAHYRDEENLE

[21] = biological target: TJP1_2, Q07157; conditions: plain residues with an end cap or a label only (N-terminal biotin on a linker: ado-ado)
Sequence of TJP1_2, Q07157 (Q07157 181-274): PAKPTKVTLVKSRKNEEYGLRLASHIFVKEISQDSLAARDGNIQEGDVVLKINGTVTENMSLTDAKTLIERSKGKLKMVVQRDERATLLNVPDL

[22] = biological target: IL16_4, Q14005; conditions: plain residues with an end cap or a label only (N-terminal biotin on a linker: ado-ado)
Sequence of IL16_4, Q14005 (Q14005 1229-1329): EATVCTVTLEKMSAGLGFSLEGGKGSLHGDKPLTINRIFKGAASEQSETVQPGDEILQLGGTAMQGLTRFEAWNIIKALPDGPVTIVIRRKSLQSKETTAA

[23] = biological target: GRIP2_5, Q9C0E4; conditions: plain residues with an end cap or a label only (N-terminal biotin on a linker: ado-ado)
Sequence of GRIP2_5, Q9C0E4 (Q9C0E4 544-642): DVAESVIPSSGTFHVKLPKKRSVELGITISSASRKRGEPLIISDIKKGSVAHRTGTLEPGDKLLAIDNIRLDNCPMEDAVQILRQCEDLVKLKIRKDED

[24] = biological target: DLG4_1, P78352; conditions: plain residues with an end cap or a label only (N-terminal biotin on a linker: ado-ado)
Sequence of DLG4_1, P78352 (P78352 62-152): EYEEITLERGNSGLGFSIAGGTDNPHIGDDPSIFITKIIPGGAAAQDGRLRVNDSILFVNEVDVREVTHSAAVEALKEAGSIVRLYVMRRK

[25] = biological target: DLG1_2, Q12959; conditions: plain residues with an end cap or a label only (N-terminal biotin on a linker: ado-ado)
Sequence of DLG1_2, Q12959 (Q12959 314-412): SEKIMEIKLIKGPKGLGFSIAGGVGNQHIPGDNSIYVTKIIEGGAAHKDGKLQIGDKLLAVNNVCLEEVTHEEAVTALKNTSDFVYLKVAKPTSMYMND

[26] = biological target: T11, DLG3_3, Q92796; conditions: plain residues with an end cap or a label only (N-terminal biotin on a linker: ado-ado)
T11 sequence (Q92796 374-475, limits assumed, looked up): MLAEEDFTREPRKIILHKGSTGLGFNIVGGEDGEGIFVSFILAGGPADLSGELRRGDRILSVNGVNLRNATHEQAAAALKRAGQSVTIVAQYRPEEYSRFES

[27] = biological target: HTRA2, O43464; conditions: plain residues with an end cap or a label only (N-terminal biotin on a linker: ado-ado)
Sequence of HTRA2, O43464 (O43464 355-458): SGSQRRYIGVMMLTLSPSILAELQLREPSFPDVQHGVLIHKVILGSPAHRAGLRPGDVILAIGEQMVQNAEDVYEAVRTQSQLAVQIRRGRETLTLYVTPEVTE

[28] = biological target: NHERF4_4, Q86UT5; conditions: plain residues with an end cap or a label only (N-terminal biotin on a linker: ado-ado)
Sequence of NHERF4_4, Q86UT5 (Q86UT5 464-550): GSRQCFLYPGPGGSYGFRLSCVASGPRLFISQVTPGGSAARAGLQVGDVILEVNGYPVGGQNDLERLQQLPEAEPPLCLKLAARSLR

[29] = biological target: DLG4_2, P78352; conditions: plain residues with an end cap or a label only (N-terminal biotin on a linker: ado-ado)
Sequence of DLG4_2, P78352 (P78352 155-259): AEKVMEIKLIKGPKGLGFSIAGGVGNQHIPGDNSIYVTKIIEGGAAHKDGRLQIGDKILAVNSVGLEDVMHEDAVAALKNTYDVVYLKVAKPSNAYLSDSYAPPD

[30] = biological target: DLG1_3, Q12959; conditions: plain residues with an end cap or a label only (N-terminal biotin on a linker: ado-ado)
Sequence of DLG1_3, Q12959 (Q12959 457-571): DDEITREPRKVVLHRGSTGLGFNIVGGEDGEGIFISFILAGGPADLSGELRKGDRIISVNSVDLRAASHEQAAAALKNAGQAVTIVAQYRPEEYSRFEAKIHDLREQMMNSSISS

[31] = biological target: T12, TX1BP3, O14907; conditions: plain residues with an end cap or a label only (N-terminal biotin on a linker: ado-ado)
T12 sequence (O14907 10-122, limits assumed, looked up): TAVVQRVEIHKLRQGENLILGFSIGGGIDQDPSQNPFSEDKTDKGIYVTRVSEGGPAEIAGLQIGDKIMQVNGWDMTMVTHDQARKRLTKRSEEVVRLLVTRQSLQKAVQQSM

[32] = biological target: TJP1_3, Q07157; conditions: plain residues with an end cap or a label only (N-terminal biotin on a linker: ado-ado)
Sequence of TJP1_3, Q07157 (Q07157 416-512): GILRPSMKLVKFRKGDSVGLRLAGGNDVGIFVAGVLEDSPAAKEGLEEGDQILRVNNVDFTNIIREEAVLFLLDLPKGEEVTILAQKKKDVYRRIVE

[33] = biological target: MAGI2_2, Q86UL8; conditions: plain residues with an end cap or a label only (N-terminal biotin on a linker: ado-ado)
Sequence of MAGI2_2, Q86UL8 (Q86UL8 410-522): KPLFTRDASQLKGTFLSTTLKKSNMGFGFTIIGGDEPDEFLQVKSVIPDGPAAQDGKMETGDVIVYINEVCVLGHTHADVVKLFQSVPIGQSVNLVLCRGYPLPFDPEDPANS

[34] = biological target: T13, SNTG1, Q9NSN8; conditions: plain residues with an end cap or a label only (N-terminal biotin on a linker: ado-ado)
T13 sequence (Q9NSN8 52-150, limits assumed, looked up): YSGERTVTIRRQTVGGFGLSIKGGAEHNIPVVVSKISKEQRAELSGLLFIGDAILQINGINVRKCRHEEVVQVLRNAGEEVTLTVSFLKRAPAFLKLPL

[35] = biological target: NHERF4_1, Q86UT5-2; conditions: plain residues with an end cap or a label only (N-terminal biotin on a linker: ado-ado)
Sequence of NHERF4_1, Q86UT5-2 (Q86UT5 other isoform, or with tags, fused parts or gaps): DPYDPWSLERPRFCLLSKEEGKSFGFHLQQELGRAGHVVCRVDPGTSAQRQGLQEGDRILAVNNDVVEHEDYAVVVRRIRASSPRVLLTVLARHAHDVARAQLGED

[36] = biological target: T14, APBA2_1, Q99767; conditions: plain residues with an end cap or a label only (N-terminal biotin on a linker: ado-ado)
T14 sequence (Q99767 563-664, limits assumed, looked up): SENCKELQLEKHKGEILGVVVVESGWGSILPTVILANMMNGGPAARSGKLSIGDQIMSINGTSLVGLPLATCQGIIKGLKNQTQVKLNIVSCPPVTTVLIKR

[37] = biological target: Inadl_9, Q8NI35; conditions: plain residues with an end cap or a label only (N-terminal biotin on a linker: ado-ado)
Sequence of Inadl_9, Q8NI35 (Q8NI35 1530-1615): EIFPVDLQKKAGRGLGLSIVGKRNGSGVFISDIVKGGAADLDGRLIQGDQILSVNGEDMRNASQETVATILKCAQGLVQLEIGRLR

[38] = biological target: T15, MPDZ_10, O75970; conditions: plain residues with an end cap or a label only (N-terminal biotin on a linker: ado-ado)
T15 sequence (O75970 1624-1722, limits assumed, looked up): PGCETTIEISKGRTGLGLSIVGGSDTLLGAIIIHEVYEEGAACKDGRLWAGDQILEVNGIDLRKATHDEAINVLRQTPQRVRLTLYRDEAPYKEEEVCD

[39] = biological target: MAGI2_4, Q86UL8; conditions: plain residues with an end cap or a label only (N-terminal biotin on a linker: ado-ado)
Sequence of MAGI2_4, Q86UL8 (Q86UL8 772-865): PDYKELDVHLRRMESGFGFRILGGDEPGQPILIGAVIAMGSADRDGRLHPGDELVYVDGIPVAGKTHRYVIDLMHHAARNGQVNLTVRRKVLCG

[40] = biological target: PTPN3, P26045; conditions: plain residues with an end cap or a label only (N-terminal biotin on a linker: ado-ado)
Sequence of PTPN3, P26045 (P26045 505-587): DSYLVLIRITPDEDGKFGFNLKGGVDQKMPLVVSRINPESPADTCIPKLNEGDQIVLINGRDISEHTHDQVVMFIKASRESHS

[41] = biological target: CASK, O14936; conditions: plain residues with an end cap or a label only (N-terminal biotin on a linker: ado-ado)
Sequence of CASK, O14936 (O14936 487-570): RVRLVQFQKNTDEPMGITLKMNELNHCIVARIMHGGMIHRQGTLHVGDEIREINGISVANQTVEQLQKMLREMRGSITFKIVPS

[42] = biological target: T16, NHERF3_3, Q5T2W1; conditions: plain residues with an end cap or a label only (N-terminal biotin on a linker: ado-ado)
T16 sequence (Q5T2W1 238-333, limits assumed, looked up): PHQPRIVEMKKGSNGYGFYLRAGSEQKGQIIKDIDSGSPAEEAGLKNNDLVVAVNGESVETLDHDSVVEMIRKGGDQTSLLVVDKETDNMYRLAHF

[43] = biological target: T17, SHANK1, Q9Y566; conditions: plain residues with an end cap or a label only (N-terminal biotin on a linker: ado-ado)
T17 sequence (Q9Y566 658-767, limits assumed, looked up): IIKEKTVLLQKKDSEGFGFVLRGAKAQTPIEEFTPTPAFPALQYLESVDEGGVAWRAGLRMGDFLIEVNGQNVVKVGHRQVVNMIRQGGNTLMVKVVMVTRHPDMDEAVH

[44] = biological target: ARHGEF12, Q9NZN5-2; conditions: plain residues with an end cap or a label only (N-terminal biotin on a linker: ado-ado)
Sequence of ARHGEF12, Q9NZN5-2 (Q9NZN5 other isoform, or with tags, fused parts or gaps): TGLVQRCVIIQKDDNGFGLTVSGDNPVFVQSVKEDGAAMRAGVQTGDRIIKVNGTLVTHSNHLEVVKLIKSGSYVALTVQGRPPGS

[45] = biological target: DLG2_2, Q15700; conditions: plain residues with an end cap or a label only (N-terminal biotin on a linker: ado-ado)
Sequence of DLG2_2, Q15700 (Q15700 189-283): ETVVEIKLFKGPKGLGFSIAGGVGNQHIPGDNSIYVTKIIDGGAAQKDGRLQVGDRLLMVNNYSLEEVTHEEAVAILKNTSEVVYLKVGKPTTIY

[46] = biological target: MAST2, Q6P0Q8; conditions: plain residues with an end cap or a label only (N-terminal biotin on a linker: ado-ado)
Sequence of MAST2, Q6P0Q8 (Q6P0Q8 1099-1202): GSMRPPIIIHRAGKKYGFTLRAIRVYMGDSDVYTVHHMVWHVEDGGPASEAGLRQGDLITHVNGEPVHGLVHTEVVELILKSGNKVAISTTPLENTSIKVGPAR

[47] = biological target: MAGI3_2, Q5TCQ9; conditions: plain residues with an end cap or a label only (N-terminal biotin on a linker: ado-ado)
Sequence of MAGI3_2, Q5TCQ9 (Q5TCQ9 398-503): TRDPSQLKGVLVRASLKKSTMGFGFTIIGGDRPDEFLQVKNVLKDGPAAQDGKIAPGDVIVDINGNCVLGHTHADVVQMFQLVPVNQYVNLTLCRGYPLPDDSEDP

[48] = plain residues with an end cap or a label only (N-terminal biotin on a linker: ttds)
[49] = plain residues with an end cap or a label only (N-terminal biotin on a linker: ado-ado)

pKd [1, 48]: 3.88 | pKd [2]: 3.5 | pKd [3]: 3.82 | pKd [4]: 3.8 | pKd [5]: 3.63 | pKd [6]: 3.65 | pKd [7, 48]: 3.69 | pKd [8]: 3.49 | pKd [9]: 3.54 | pKd [10]: 3.61 | pKd [11]: 3.82 | pKd [12]: 3.51
Binder: NDPAWDETNL [ARHGEF7, Q14155]

pKd [1, 49]: 3.49 | pKd [13]: 3.68 | pKd [14]: 3.63 | pKd [15]: 3.47 | pKd [16]: 3.49 | pKd [17]: 3.55 | pKd [18]: 3.64 | pKd [19]: 3.8 | pKd [20]: 3.69 | pKd [21]: 3.88 | pKd [22]: 3.65 | pKd [23]: 3.59 | pKd [24]: 3.56 | pKd [25]: 3.67 | pKd [26]: 3.81 | pKd [27]: 3.68 | pKd [28]: 3.8 | pKd [29]: 3.79 | pKd [30]: 3.69 | pKd [31]: 3.88 | pKd [32]: 3.61 | pKd [7, 49]: 3.89 | pKd [33]: 3.51 | pKd [34]: 3.5 | pKd [35]: 3.6 | pKd [36]: 3.5 | pKd [37]: 3.49 | pKd [38]: 3.48 | pKd [39]: 3.55 | pKd [40]: 3.71 | pKd [41]: 3.48 | pKd [42]: 3.75 | pKd [43]: 3.52 | pKd [44]: 3.68 | pKd [45]: 3.48 | pKd [46]: 3.62 | pKd [47]: 3.5
Binder: KSGKQTMLVV [TRIM29, Q14134]
